Assay results reported in patent publication US20170314054A1 (ROCHE SEQUENCING SOLUTIONS, published 2017).
No end group written: not given here.

T1: microbial transglutaminase from Streptomyces mobaraensis (MTG) (Streptomyces mobaraensis, UniProt P81453 77-407)
T1 sequence (looked up): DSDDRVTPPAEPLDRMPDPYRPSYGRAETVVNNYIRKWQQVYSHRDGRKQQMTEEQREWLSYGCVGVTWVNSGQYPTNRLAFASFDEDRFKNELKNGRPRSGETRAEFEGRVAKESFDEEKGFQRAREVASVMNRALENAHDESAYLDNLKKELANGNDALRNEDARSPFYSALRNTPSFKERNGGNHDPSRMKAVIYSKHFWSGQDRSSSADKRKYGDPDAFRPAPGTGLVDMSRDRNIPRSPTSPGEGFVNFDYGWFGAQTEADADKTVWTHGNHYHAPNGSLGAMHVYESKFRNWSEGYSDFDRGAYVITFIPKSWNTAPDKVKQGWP


These binders were tested against T1, microbial transglutaminase from … (assay: cell-based or functional assay).

Binder	Log2(signal), array MTG labeling with N-(Biotinyl)cadaverine
PYVLQ (also: flanked by G:S (3:1) linkers on peptide array) [PYVLQ (SEQ ID NO: 16)]	15.3 Log2(signal)
NYALQ (also: flanked by G:S (3:1) linkers on peptide array) [NYALQ (SEQ ID NO: 3)]	15.5 Log2(signal)
HYALQ (also: flanked by G:S (3:1) linkers on peptide array) [HYALQ (SEQ ID NO: 19)]	15.2 Log2(signal)
SYALQ (not fully specified) [SYALQ (SEQ ID NO: 18)]	15.2 Log2(signal)
PYALQ (also: flanked by G:S (3:1) linkers on peptide array) [PYALQ (SEQ ID NO: 5)]	15.4 Log2(signal)
DYVLQ (also: flanked by G:S (3:1) linkers on peptide array) [DYVLQ (SEQ ID NO: 2)]	15.5 Log2(signal)
DYFLQ [DYFLQ (SEQ ID NO: 8)]	15.4 Log2(signal)
EFALQ (also: flanked by G:S (3:1) linkers on peptide array) [EFALQ (SEQ ID NO: 23)]	15.2 Log2(signal)
EYFLQ (also: flanked by G:S (3:1) linkers on peptide array) [EYFLQ (SEQ ID NO: 24)]	15.2 Log2(signal)
NYVLQ (also: flanked by G:S (3:1) linkers on peptide array) [NYVLQ (SEQ ID NO: 12)]	15.3 Log2(signal)
DYVAQ [DYVAQ (SEQ ID NO: 20)]	15.2 Log2(signal)
EYALQ (also: flanked by G:S (3:1) linkers on peptide array) [EYALQ (SEQ ID NO: 4)]	15.5 Log2(signal)
RYALQ (not fully specified) [RYALQ (SEQ ID NO: 14)]	15.3 Log2(signal)
DFYLQ [DFYLQ (SEQ ID NO: 22)]	15.2 Log2(signal)
DYALQ [DYALQ (SEQ ID NO: 1)]	15.5 Log2(signal)
FYALQ (also: flanked by G:S (3:1) linkers on peptide array) [FYALQ (SEQ ID NO: 10)]	15.4 Log2(signal)
EFVAQ (also: flanked by G:S (3:1) linkers on peptide array) [EFVAQ (SEQ ID NO: 21)]	15.2 Log2(signal)
EYVAQ (also: flanked by G:S (3:1) linkers on peptide array) [EYVAQ (SEQ ID NO: 13)]	15.3 Log2(signal)
NYFLQ (also: flanked by G:S (3:1) linkers on peptide array) [NYFLQ (SEQ ID NO: 9)]	15.4 Log2(signal)
YFALQ (not fully specified) [YFALQ (SEQ ID NO: 15)]	15.3 Log2(signal)
DFALQ [DFALQ (SEQ ID NO: 7)]	15.4 Log2(signal)
DYTLQ [DYTLQ (SEQ ID NO: 11)]	15.3 Log2(signal)
NFVLQ (not fully specified; also: flanked by G:S (3:1) linkers on peptide array) [NFVLQ (SEQ ID NO: 25)]	15.2 Log2(signal)
WYALQ (not fully specified) [WYALQ (SEQ ID NO: 17)]	15.3 Log2(signal)
EYVLQ (not fully specified; also: flanked by G:S (3:1) linkers on peptide array) [EYVLQ (SEQ ID NO: 6)]	15.4 Log2(signal)

Biological target: T1, microbial transglutaminase from …
Experiment: cell-based or functional assay
Remark: another data set of the same source

Binder	A (array MTG labeling signal with Z-Gln-Gly-CAD-biotin)
KLGAK (also: flanked by G:S (3:1) linkers on peptide array) [KLGAK (SEQ ID NO: 72)]	13.3
SKLSK (not fully specified) [SKLSK (SEQ ID NO: 71)]	13.3
RAKYK (also: flanked by G:S (3:1) linkers on peptide array) [RAKYK (SEQ ID NO: 70)]	13.3
QRSKL (also: flanked by G:S (3:1) linkers on peptide array) [QRSKL (SEQ ID NO: 73)]	13.3
LSKLK (also: flanked by G:S (3:1) linkers on peptide array) [LSKLK (SEQ ID NO: 75)]	13.3
TKSKL (not fully specified) [TKSKL (SEQ ID NO: 56)]	13.4
ARSKL [ARSKL (SEQ ID NO: 54)]	13.4
FPKLK (also: flanked by G:S (3:1) linkers on peptide array) [FPKLK (SEQ ID NO: 61)]	13.4
RGTKL (also: flanked by G:S (3:1) linkers on peptide array) [RGTKL (SEQ ID NO: 60)]	13.4
SKSKL (not fully specified) [SKSKL (SEQ ID NO: 63)]	13.4
KTKYK (also: flanked by G:S (3:1) linkers on peptide array) [KTKYK (SEQ ID NO: 74)]	13.3
FTKSK (also: flanked by G:S (3:1) linkers on peptide array) [FTKSK (SEQ ID NO: 64)]	13.4
KLKYK (also: flanked by G:S (3:1) linkers on peptide array) [KLKYK (SEQ ID NO: 65)]	13.4
PKTKL (also: flanked by G:S (3:1) linkers on peptide array) [PKTKL (SEQ ID NO: 66)]	13.3
RSKSK (not fully specified) [RSKSK (SEQ ID NO: 62)]	13.4
KSKLA (also: flanked by G:S (3:1) linkers on peptide array) [KSKLA (SEQ ID NO: 55)]	13.4
KLSKL (also: flanked by G:S (3:1) linkers on peptide array) [KLSKL (SEQ ID NO: 57)]	13.4
RSKLG (not fully specified) [RSKLG (SEQ ID NO: 58)]	13.4
GRSKL (also: flanked by G:S (3:1) linkers on peptide array) [GRSKL (SEQ ID NO: 69)]	13.3
RGSKL (also: flanked by G:S (3:1) linkers on peptide array) [RGSKL (SEQ ID NO: 59)]	13.4
RLKSK (also: flanked by G:S (3:1) linkers on peptide array) [RLKSK (SEQ ID NO: 67)]	13.3
RSKLA (not fully specified) [RSKLA (SEQ ID NO: 68)]	13.3
NRTKL (also: flanked by G:S (3:1) linkers on peptide array) [NRTKL (SEQ ID NO: 76)]	13.3
